According to publication PMC5260992:

Molecular target: Pin1 (UniProt Q13526)
Assay: modified ELISA, plate-coated peptide
Settings: reference: non-phosphorylated peptide T184; sites T184

binding against the reference: stronger
Substance: ATF1 (activating transcription factor 1) (from UniProt P18846) phosphorylated peptide pT184
